In US20230095004 (Aptitude Medical Systems, Inc., published 2023):

Tests used:
[1] = molecular target: T1, VEGF-165 (VEGF-A) (Homo sapiens); experiment: flow; conditions: tags: recombinant; chain copies: 2
T1 chain: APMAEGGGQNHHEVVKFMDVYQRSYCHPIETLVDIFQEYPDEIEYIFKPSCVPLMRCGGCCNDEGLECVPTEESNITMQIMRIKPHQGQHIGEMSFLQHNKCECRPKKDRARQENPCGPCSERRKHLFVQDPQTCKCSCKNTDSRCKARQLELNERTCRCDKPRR

[2] = molecular target: Angiopoietin-2 (Ang2) (Homo sapiens, UniProt O15123 O15123:19-496); experiment: flow; conditions: tags: His tag; R&D Systems 623-AN
Chain of Angiopoietin-2 (Ang2) (O15123 19-496, one chain of several): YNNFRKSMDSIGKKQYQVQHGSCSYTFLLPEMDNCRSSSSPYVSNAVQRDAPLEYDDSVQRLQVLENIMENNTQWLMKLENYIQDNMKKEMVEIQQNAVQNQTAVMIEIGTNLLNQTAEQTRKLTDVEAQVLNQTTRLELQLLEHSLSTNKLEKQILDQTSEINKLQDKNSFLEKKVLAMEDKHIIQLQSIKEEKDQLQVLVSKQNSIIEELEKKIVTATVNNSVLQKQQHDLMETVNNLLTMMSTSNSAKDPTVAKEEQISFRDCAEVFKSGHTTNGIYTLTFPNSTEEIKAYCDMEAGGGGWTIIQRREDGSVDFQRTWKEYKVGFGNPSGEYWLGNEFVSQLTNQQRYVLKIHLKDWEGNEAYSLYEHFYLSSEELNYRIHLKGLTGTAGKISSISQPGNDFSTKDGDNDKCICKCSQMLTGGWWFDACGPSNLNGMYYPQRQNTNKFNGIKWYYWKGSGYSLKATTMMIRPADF

[3] = molecular target: VEGF-121 (VEGF-A) (Homo sapiens, UniProt P15692 SEQ:1-121); experiment: flow; PBSMCT, 37 C; conditions: tags: recombinant; chain copies: 2; label: biotin
[4] = molecular target: T1, VEGF-165 (VEGF-A); experiment: flow; PBSMCT, 37 C; conditions: tags: recombinant; chain copies: 2; label: biotin

B1: AMSB107.0 (ssRNA)
RNA: ACCCUUGCUUGCGUAGCAUUUUACCAGUGAGUCGGAUCUCCGCAUAGAUAAGCCAACAAACGUACAUUCUCUGUUAGUAUUUUCUGCG
modifications: 2'-F all nucleotides
In the case of B1, the Kd [1] is reported as 1290 pM and the Kd [2] is reported as 222 pM.

B2: AMSB107.14 (ssRNA)
RNA: UGCACUGCAUUUUACCAGUGAGUCGGAUCUCCGCAUAGAUAAGCCAACAAACGUACAUUCUCUGUUAGUAUUUUCUGCG
modifications: 2'-F all nucleotides
B2 showed a Kd [1] of 643 pM and a Kd [2] of 928 pM.

In the case of CCCCAUCUGCGAAGCAGUCAGCCAGUGAGUCGGAUCUCCGCAUAUCUGCG (ssRNA, 2'-F all nucleotides) [AMS0433.6], the Kd [3] is reported as 898 pM and the Kd [4] is reported as 674 pM.

B3: AMSB107.1 (ssRNA)
RNA: UGCCAGUGAGUCGGAUCUCCGCAUAGAUAAGCCAACAAACGUACAUUCUCUGUUAGUAUUUUCUGCG
modifications: 2'-F all nucleotides
B3 showed a Kd [1] of 13900 pM and a Kd [2] of 885 pM.

In the case of UGCCAGUGAGUCGGAUCUCCUGUGAGAACACAG (ssRNA, 2'-F all nucleotides) [AMS0433.10], the Kd [3] is reported as 11400 pM and the Kd [4] is reported as 8470 pM.

In the case of UGCACUGCAUUUUACCAGUGAGUCGGAUCUCCGCAUAUCUGCG (ssRNA, 2'-F all nucleotides) [AMS0433.17], the Kd [3] is reported as 475 pM and the Kd [4] is reported as 359 pM.

B4: AMSB107.11 (ssRNA)
RNA: UGCAUGCAUUUUCCAGUGAGUCGGAUCUCCGCAUAGAUAAGCCAACAAACGUACAUUCUCUGUUAGUAUUUUCUGCG
modifications: 2'-F all nucleotides
B4 showed a Kd [1] of 57 pM and a Kd [2] of 95 pM.

B5: AMS0433.5 (ssRNA)
RNA: CACCAUGCUUGCGUAGCAUCAUCCAGUGAGUCGGAUCUCCGCAUAUCUGCG
modifications: 2'-F all nucleotides
B5 was tested, and the Kd [3] was 1190 pM and the Kd [4] was 739 pM.

B6: AMSB107.6 (ssRNA)
RNA: UGCAUGCAACCAGUGAGUCGGAUCUCCGCAUAGAUAAGCCAACAAACGUACAUUCUCUGUUAGUAUUUUCUGCG
modifications: 2'-F all nucleotides
For B6, the Kd [1] was 2340 pM and the Kd [2] was 74 pM.

Binder UUUUGCAUGCAUUUUACCAGUGAGUCGGAUCUCCGCAUAUCUGCG (ssRNA, 2'-F all nucleotides) [AMS0433.20] has a Kd [3] of 45 pM and a Kd [4] of 39 pM.

CUGUACAGUUUUACCAGUGAGUCGGAUCUCCGCAUAUCUGCG (ssRNA, 2'-F all nucleotides) [AMS0433.19] showed a Kd [3] of 162 pM and a Kd [4] of 97 pM.

CACAGAGAACUGUGUGCCAGUGAGUCGGAUCUCCGCAUAUCUGCG (ssRNA, 2'-F all nucleotides) [AMS0433.7] gave a Kd [3] of 13800 pM and a Kd [4] of 9760 pM.

B7: AMSB107.8 (ssRNA)
RNA: UUUUGCAUGCAUUUUACCAGUGAGUCGGAUCUCCGCAUAGAUAAGCCAACAAACGUACAUUCUCUGUUAGUAUUUUCUGCG
modifications: 2'-F all nucleotides
B7 gave a Kd [1] of 48 pM and a Kd [2] of 95 pM.

B8: AMS0433.13 (ssRNA)
RNA: UUUUGUGCUUGCGUAGCAACCCUCCAGUGAGUCGGAUCUCCGCAUAUCUGCG
modifications: 2'-F all nucleotides
B8 showed a Kd [3] of 9470 pM and a Kd [4] of 8300 pM.

B9: AMSB107 (ssRNA)
RNA: UGCAUGCAUUUUACCAGUGAGUCGGAUCUCCGCAUAGAUAAGCCAACAAACGUACAUUCUCUGUUAGUAUUUUCUGCG
modifications: 2'-F all nucleotides
With B9 the Kd [1] was 54 pM and the Kd [2] was 87 pM.

B10: AMSB107.20 (ssRNA)
RNA: UGCAUGCAUUUUACCAGUGAGUCGGAUCUCCGCAUAGAUAAGCCAACAAACGUACAUUCUCUGUUAGUAUUUUCUGCG
modifications: 2'-F; LNA in stem nucleotides as printed
Work on B10 yielded a Kd [1] of 234 pM and a Kd [2] of 253 pM.

B11: AMSB107.18 (ssRNA)
RNA: UGCAUGCAUUUUACCAGUGAGUCGGAUCUCCGCAUAGAUAAGCCAACAAACGUACAUUCUCUGUUAGUAUUUUCUGCG
modifications: 2'-F; LNA at selected positions of the VEGF consensus as printed
B11 was tested, and the Kd [1] was 608 pM and the Kd [2] was 79 pM.

B12: AMSB107.21 (ssRNA)
RNA: UGCAUGCAUUUUACCAGUGAGUCGGAUCUCCGCAUAGAUAAGCCAACAAACGUACAUUCUCUGUUAGUAUUUUCUGCG
modifications: 2'-F; 2'-OMe in stem nucleotides (5' UGCAUGCA, internal CGCA, 3' UGCG)
B12 gave a Kd [1] of 52 pM and a Kd [2] of 83 pM.

B13: AMSB107.12 (ssRNA)
RNA: CUGUACAGUUUUACCAGUGAGUCGGAUCUCCGCAUAGAUAAGCCAACAAACGUACAUUCUCUGUUAGUAUUUUCUGCG
modifications: 2'-F all nucleotides
With B13 the Kd [1] was 606 pM and the Kd [2] was 227 pM.

B14: AMSB107.19 (ssRNA)
RNA: UGCAUGCAUUUUACCAGUGAGUCGGAUCUCCGCAUAGAUAAGCCAACAAACGUACAUUCUCUGUUAGUAUUUUCUGCG
modifications: 2'-F; LNA at selected positions of the VEGF consensus as printed
B14 showed a Kd [2] of 83 pM.

B15: AMSB107.4 (ssRNA)
RNA: GCAUGCUUUUACCAGUGAGUCGGAUCUCCGCAUAGAUAAGCCAACAAACGUACAUUCUCUGUUAGUAUUUUCUGCG
modifications: 2'-F all nucleotides
B15 gave a Kd [1] of 225 pM and a Kd [2] of 237 pM.

B16: AMSB107.9 (ssRNA)
RNA: UGCAUGCAUUACCAGUGAGUCGGAUCUCCGCAUAGAUAAGCCAACAAACGUACAUUCUCUGUUAGUAUUUUCUGCG
modifications: 2'-F all nucleotides
B16 showed a Kd [1] of 151 pM and a Kd [2] of 150 pM.

B17: AMSB108.0 (ssRNA)
RNA: CGCAUAGAUAAGCCAACAAACGUACAUUCUCUGUUAGUAUUUUCUGCGUGCCAGUGAGUCGGAUCUCCACAGUUCUCUGUG
modifications: 2'-F all nucleotides
B17 was tested, and the Kd [1] was 15700 pM and the Kd [2] was 520 pM.

CGUAGCAUUUUGCCAGUGAGUCGGAUCUCCGCAUAUCUGCG (ssRNA, 2'-F all nucleotides) [AMS0433.8] gave a Kd [3] of 11000 pM and a Kd [4] of 8200 pM.

Binder GCUGUACAGCUUUUACCAGUGAGUCGGAUCUCCGCAUAUCUGCG (ssRNA, 2'-F all nucleotides) [AMS0433.21] has a Kd [3] of 150 pM and a Kd [4] of 131 pM.

B18: AMSB107.16 (ssRNA)
RNA: UGCAUGCAUUUUACCAGUGAGUCGGAUCUCUUUCGCAUAGAUAAGCCAACAAACGUACAUUCUCUGUUAGUAUUUUCUGCG
modifications: 2'-F all nucleotides
B18 gave a Kd [2] of 80 pM.

In the case of ACCCUUGCUUGCGUAGCAUUUUACCAGUGAGUCGGAUCUCUGCAUGCA (ssRNA, 2'-F all nucleotides) [AMS0433.15], the Kd [3] is reported as 9000 pM and the Kd [4] is reported as 7340 pM.

Binder UGCAUCUGCAUUUUACCAGUGAGUCGGAUCUCCGCAUAUCUGCG (ssRNA, 2'-F all nucleotides) [AMS0433.18] has a Kd [3] of 5730 pM and a Kd [4] of 3810 pM.

Work on UGCCAGUGAGUCGGAUCUCCGCAUAUCUGCGCGCAUAUCUGCG (ssRNA, 2'-F all nucleotides) [AMS0433.2] yielded a Kd [3] of 11400 pM and a Kd [4] of 8420 pM.

B19: AMSB107.5 (ssRNA)
RNA: AUGCAUGCAUUUUUACCAGUGAGUCGGAUCUCCGCAUAGAUAAGCCAACAAACGUACAUUCUCUGUUAGUAUUUUCUGCG
modifications: 2'-F all nucleotides
Work on B19 yielded a Kd [1] of 52 pM and a Kd [2] of 96 pM.

B20: AMSB107.10 (ssRNA)
RNA: UGCAUGCAUUUUUUACCAGUGAGUCGGAUCUCCGCAUAGAUAAGCCAACAAACGUACAUUCUCUGUUAGUAUUUUCUGCG
modifications: 2'-F all nucleotides
With B20 the Kd [1] was 51 pM and the Kd [2] was 89 pM.

B21: AMSB107.13 (ssRNA)
RNA: CCGGUACCGGUUUUACCAGUGAGUCGGAUCUCCGCAUAGAUAAGCCAACAAACGUACAUUCUCUGUUAGUAUUUUCUGCG
modifications: 2'-F all nucleotides
For B21, the Kd [1] was 50 pM and the Kd [2] was 89 pM.

B22: AMSB107.15 (ssRNA)
RNA: UGCAUCUGCAUUUUACCAGUGAGUCGGAUCUCCGCAUAGAUAAGCCAACAAACGUACAUUCUCUGUUAGUAUUUUCUGCG
modifications: 2'-F all nucleotides
B22 was tested, and the Kd [1] was 765 pM and the Kd [2] was 778 pM.

B23: AMSB107.17 (ssRNA)
RNA: GCUGUACAGCUUUUACCAGUGAGUCGGAUCUCCGCAUAGAUAAGCCAACAAACGUACAUUCUCUGUUAGUAUUUUCUGCG
modifications: 2'-F all nucleotides
B23 gave a Kd [1] of 198 pM and a Kd [2] of 86 pM.

B24: AMS0433.1 (ssRNA)
RNA: ACCCUUGCUUGCGUAGCAUUUUACCAGUGAGUCGGAUCUCCGCAUAUCUGCG
modifications: 2'-F all nucleotides
In the case of B24, the Kd [3] is reported as 1120 pM and the Kd [4] is reported as 666 pM.

B25: AMS0433.3 (ssRNA)
RNA: ACCCUUGCUUGCGUAGCAUUCUGCCAGUGAGUCGGAUCUCCGCAUAUCUGCG
modifications: 2'-F all nucleotides
B25 was tested, and the Kd [3] was 921 pM and the Kd [4] was 837 pM.

B26: AMS0433.4 (ssRNA)
RNA: ACCCUUGCUUGCGCAGCAUUCUGCCAGUGAGUCGGAUCUCCGCAUAUCUGCG
modifications: 2'-F all nucleotides
In the case of B26, the Kd [3] is reported as 1100 pM and the Kd [4] is reported as 760 pM.

B27: AMSB107.2 (ssRNA)
RNA: UGCCAGUGAGUCGGAUCUCCACAGUAGAUAAGCCAACAAACGUACAUUCUCUGUUAGUAUUUUCCUGUG
modifications: 2'-F all nucleotides
Work on B27 yielded a Kd [1] of 12900 pM and a Kd [2] of 820 pM.

B28: AMSB107.7 (ssRNA)
RNA: UGCAUGCACAGUGAGUCGGAUCUCCGCAUAGAUAAGCCAACAAACGUACAUUCUCUGUUAGUAUUUUCUGCG
modifications: 2'-F all nucleotides
Binder B28 has a Kd [2] of 85 pM.

For UUUUACCAGUGAGUCGGAUCUCUGCAUGCA (ssRNA, 2'-F all nucleotides) [AMS0433.16], the Kd [3] was 10400 pM and the Kd [4] was 6650 pM.

B29: AMS0433.11 (ssRNA)
RNA: CACAGAGAACUGUGCCUAGCAUUUUGCCAGUGAGUCGGAUCUCCGCAUAUCUGCG
modifications: 2'-F all nucleotides
For B29, the Kd [3] was 23200 pM and the Kd [4] was 16400 pM.
